Reference: PMC4279225 (Molecular Biology of the Cell, 2015)

What was measured:
SEC = biological target: the molecule itself; test: SEC
[1] = biological target: T1, Recombinant wild-type septin complex Pnut-Sep2-Sep1 (His tag removed) (Drosophila melanogaster, UniProt P40797 1-539; P54359 1-419; P42207 1-361); test: negative-stain EM with Ni-NTA Nanogold labelling
T1 sequence (looked up) 1: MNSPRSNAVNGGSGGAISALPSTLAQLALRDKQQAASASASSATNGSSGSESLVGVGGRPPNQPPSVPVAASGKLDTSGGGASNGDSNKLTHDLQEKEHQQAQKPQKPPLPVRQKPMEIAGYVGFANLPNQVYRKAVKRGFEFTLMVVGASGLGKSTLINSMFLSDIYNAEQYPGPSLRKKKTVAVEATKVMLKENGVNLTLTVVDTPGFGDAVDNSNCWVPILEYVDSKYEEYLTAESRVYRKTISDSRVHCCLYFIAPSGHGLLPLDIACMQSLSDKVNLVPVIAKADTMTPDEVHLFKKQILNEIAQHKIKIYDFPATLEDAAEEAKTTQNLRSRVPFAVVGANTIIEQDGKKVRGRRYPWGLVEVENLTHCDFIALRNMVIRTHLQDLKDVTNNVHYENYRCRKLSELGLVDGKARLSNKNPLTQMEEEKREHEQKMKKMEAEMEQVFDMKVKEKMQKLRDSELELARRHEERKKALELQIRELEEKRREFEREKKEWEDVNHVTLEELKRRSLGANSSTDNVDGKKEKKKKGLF
T1 sequence (looked up) 2: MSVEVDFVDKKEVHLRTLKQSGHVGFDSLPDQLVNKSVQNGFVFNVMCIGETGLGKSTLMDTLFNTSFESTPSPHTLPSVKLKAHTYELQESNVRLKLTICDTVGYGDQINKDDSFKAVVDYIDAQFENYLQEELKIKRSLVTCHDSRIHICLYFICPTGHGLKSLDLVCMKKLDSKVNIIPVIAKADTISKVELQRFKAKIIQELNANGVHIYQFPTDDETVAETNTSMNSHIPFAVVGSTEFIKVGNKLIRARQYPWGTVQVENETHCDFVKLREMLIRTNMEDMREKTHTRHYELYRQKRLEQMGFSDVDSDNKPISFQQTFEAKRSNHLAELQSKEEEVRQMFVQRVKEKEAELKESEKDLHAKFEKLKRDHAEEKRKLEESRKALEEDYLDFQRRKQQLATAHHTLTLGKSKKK
T1 sequence (looked up) 3: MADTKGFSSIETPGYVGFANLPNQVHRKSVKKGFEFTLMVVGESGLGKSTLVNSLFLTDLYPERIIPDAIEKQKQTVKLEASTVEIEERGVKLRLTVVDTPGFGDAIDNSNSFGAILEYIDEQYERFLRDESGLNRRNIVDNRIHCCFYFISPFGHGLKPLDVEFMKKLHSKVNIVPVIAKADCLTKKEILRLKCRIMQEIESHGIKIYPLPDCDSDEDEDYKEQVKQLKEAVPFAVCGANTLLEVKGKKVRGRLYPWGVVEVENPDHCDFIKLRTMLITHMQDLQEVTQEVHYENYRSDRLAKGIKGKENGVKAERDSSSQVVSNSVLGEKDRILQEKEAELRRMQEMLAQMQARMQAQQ

His-GFP-Orc6, wild type = biological target: T2, His-GFP-Orc6, wild type (Drosophila, UniProt Q9Y1B2 1-257); test: fluorescence polarisation
T2 sequence (looked up): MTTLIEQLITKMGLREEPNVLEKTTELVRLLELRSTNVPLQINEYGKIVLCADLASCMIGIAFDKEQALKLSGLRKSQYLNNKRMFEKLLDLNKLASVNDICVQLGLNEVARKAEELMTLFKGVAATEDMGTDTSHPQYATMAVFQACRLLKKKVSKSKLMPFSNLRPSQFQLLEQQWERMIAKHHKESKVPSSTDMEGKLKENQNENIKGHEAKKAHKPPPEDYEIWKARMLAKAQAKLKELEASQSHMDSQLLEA

GST-Orc6, wild type = biological target: T3, GST-Orc6, wild type (Drosophila, UniProt Q9Y1B2 1-257); test: pull-down
T3 sequence (looked up): T2 sequence (looked up)

B1: His-Orc6, wild type, Orc6-wt (1–257) (natural protein, Drosophila, UniProt Q9Y1B2 1-257, looked up)
chain: T2 sequence (looked up)
SEC
  stoichiometry N: 2
[1]
  stoichiometry N: 2.26 ± 0.34 Nanogold particles (His-Orc6 molecules) per septin hexamer

B2: His-Orc6 Δ(1–186), N-terminus deletion (domain or fragment, Drosophila, UniProt Q9Y1B2 187-257, looked up)
chain: KESKVPSSTDMEGKLKENQNENIKGHEAKKAHKPPPEDYEIWKARMLAKAQAKLKELEASQSHMDSQLLEA
[1]
  binding result: binds

B3: His-Orc6 Δ(200–257), Orc6 with truncated C-terminus (domain or fragment, Drosophila, UniProt Q9Y1B2 1-199, looked up)
chain: MTTLIEQLITKMGLREEPNVLEKTTELVRLLELRSTNVPLQINEYGKIVLCADLASCMIGIAFDKEQALKLSGLRKSQYLNNKRMFEKLLDLNKLASVNDICVQLGLNEVARKAEELMTLFKGVAATEDMGTDTSHPQYATMAVFQACRLLKKKVSKSKLMPFSNLRPSQFQLLEQQWERMIAKHHKESKVPSSTDMEG
His-GFP-Orc6, wild type
  binding result: binds
SEC
  binding result: binds
GST-Orc6, wild type
  binding result: binds
